In patent CN111333719A:

molecular target: 抗HPV16E7蛋白单抗69A6; test: indirect competition ELISA, peptide at 10μmol/L competes with coated HPV16E7 whole protein for 69A6

With GTLGIVCPICSQKP [重叠肽HPV16E7 85-98] as the binder, how does the 抑制率 read?
Its 抑制率 is 92%.

For HVDIRTLEDLLMGTLGIV [重叠肽HPV16E7 73-90], which 抑制率 is on record?
The 抑制率 was 93.5%.

RAHYNIVTFCCKCDSTLR [重叠肽HPV16E7 49-66] was tested. Which 抑制率 did it give?
The 抑制率 was 16.3%.

LCVQSTHVDIRTLEDLLM [重叠肽HPV16E7 67-84] was tested. Which 抑制率 did it give?
The 抑制率 was 91.6%.

molecular target: 抗HPV16E7蛋白单抗69A6; test: indirect competition ELISA, peptide at 1μmol/L competes with coated HPV16E7 whole protein for 69A6

Which 抑制率 does the source give for GTLGIVCPICSQKP [重叠肽HPV16E7 85-98] here?
Its 抑制率 is 48.6%.

HVDIRTLEDLLMGTLGIV [重叠肽HPV16E7 73-90] was tested. Which 抑制率 did it give?
The 抑制率 was 56.2%.

How did the 抑制率 turn out when RAHYNIVTFCCKCDSTLR [重叠肽HPV16E7 49-66] was run?
The 抑制率 was 15.6%.

With LCVQSTHVDIRTLEDLLM [重叠肽HPV16E7 67-84] as the binder, how does the 抑制率 read?
The 抑制率 was 47.3%.
